This assay concerns the target T1, TPP-2614, TweakR-ECD-34-68-hIgGFc-His-D47A (human).
T1 construct: alanine-scan mutein; used as HEK293 supernatant
Briefly: ELISA, IgG coated at 1 µg/ml, 8-fold diluted HEK293 supernatant with the TWEAKR(34-68)-Fc mutein, anti-HIS-HRP, Amplex Red. (In general: ELISA stands for enzyme-linked immunosorbent assay.)

Description: These TWEAKR(34-68) Fc muteins were expressed in HEK293 cells. To obtain dose-reaction data, IgGs were coated at a concentration of 1 μg/ml onto a 384-well Maxisorp ELISA plate, and a serial 2-fold dilution of the supernatant comprising the TWEAKR mutein was used as soluble binding partner. Detection was carried out using anti-HIS-HRP and Amplex Red.

B1: TPP-2090 (antibody, human IgG1, kappa, V domains shown)
VH: EVQLLESGGGLVQPGGSLRLSCAASGFTFSPYPMIWVRQAPGKGLEWVSYISPSGGSTHYADSVKGRFTISRDNSKNTLYLQMNSLRAEDTAVYYCARGGDTYFDYFDYWGQGTLVTVSS
VL: DIQMTQSPSSLSASVGDRVTITCRASQSISGYLNWYQQKPGKAPKLLIYQASSLQSGVPSRFSGSGSGTDFTLTISSLQPEDFATYYCQQSYTSPFITFGQGTKVEIKR
notes: human IgG1, anti-TWEAKR; biotinylated where used as soluble partner in the ELISAs
With B1, the binding result is listed as “no binding (tested: 8-fold diluted supernatant)”.

The record behind these values is US20210252161A1 (Bayer, published 2021).
